The source of these data is paper PMC7449243, “An optimized integrin α6‐targeted peptide for positron emission tomography/magnetic resonance imaging of pancreatic cancer and its precancerous lesion” (Clinical and Translational Medicine, 2020).

Positions of bridges follow the written chain, without caps; N, C: chain ends. Residues, ends and D or L forms follow the SMILES beside them. *: point of attachment. NOTA = O=C(O)CN1CCN(CC(=O)O)CCN(CC(=O)*)CC1; PEG4 = NCCOCCOCCOCCOCCC(=O)O

A word on the tissue uptake: it is the percentage of the injected dose found per gram of tissue. A higher tissue uptake goes with strong accumulation.

Data set [1] concerns spontaneously developed PDAC. The data set can be described thus: in vivo. It is filed as in vivo, mouse. The note with it: KPC mouse, PET 120 min postinjection; n = 5, mean ± SD. The method, then:
(§1) Approximately 3.7 × 10^6 Bq (100 μCi) of ^18F‐S5 was intravenously injected to a mouse for PET imaging, and 2.5 mmol/kg of gadolinium‐diethylenetriamine pentaacetic acid was injected for enhanced MR imaging. After 120 min postinjection of ^18F‐S5, PET/MR imaging was obtained by using a hybrid 3.0T PET/MR scanner (uPMR 790; UIH, Shanghai, China).
(§2) However, in the PET/MR imaging, ^18F‐S5 produced high PET signals in the possible location of the tumor (Figure 2A). The uptake of ^18F‐S5 in tumor was quantified as 4.34 ± 1.16 %ID/g (a percentage of the injected dose per gram) (n = 5) and the tumor‐to‐muscle ratio was 4.32 ± 0.65 (Figure 2B). […] The overexpression of integrin α6 in the spontaneously developed PDAC tissue was confirmed using immunohistochemistry (Figure 2D). In addition, ^18F‐S5‐PET/MR imaging could also detect metastatic tumors in KPC, where ^18F‐S5 produced high PET signals in both of the PDAC lesions and the metastatic tumors in the abdominal cavity (Figure S4A‐D). […] Immunohistochemical analysis confirmed the formation of PanIN lesions in the pancreas and increased integrin α6 expression in lesion tissues (Figure 2H).
(§3) FIGURE 2 ^18F‐S5 PET/MR imaging in PDAC and PanIN mouse models. A, Representative cross‐sectional images of PET/MR imaging with ^18F‐S5 of KPC mouse (left) and the 3D image (right). B, Quantification of ^18F‐S5 uptake (%ID/g) by KPC mouse in tumor (4.34 ± 1.16), muscle (1.00 ± 0.17), liver (1.24 ± 0.33), and heart (2.38 ± 0.45), respectively. […] D, The development of PDAC in KPC mouse was confirmed by HE staining (left), and increased integrin α6 expression was confirmed by immunohistochemistry (right). E, Representative cross‐sectional images of PET/MR imaging of KC mouse (left) and the MIP reconstructed image (right). F, Quantification of ^18F‐S5 uptake (%ID/g) by KC mouse in PanIN tissue (2.99 ± 0.52), muscle (0.89 ± 0.13), liver (1.31 ± 0.22), and heart (2.43 ± 0.35), respectively. […] H, The development of PanIN in mice was confirmed by HE staining (left), and the overexpression of integrin α6 in the lesion was analyzed using immunohistochemistry (right) (red arrow: PanIN; black arrow: relatively normal pancreatic tissue) (mean ± SD, the difference was evaluated by Student's t‐test, *P < .05, **P < .01, ***P < .001)

In a further data set the test system is PanIN. The data set can be described thus: in vivo. It is filed as in vivo, mouse. The conditions noted are these: KC mouse, PET 120 min postinjection; mean ± SD. Here is the method: as §1, §2, §3
Another data set in a line: in vivo. It is filed as in vivo, mouse. The conditions noted are these: mouse, in vivo, iv. The method, then:
as §1, §2, §3

The conditions of data set [2]: in vivo. The method, then: as §1
For another data set, the system named is Sw1990 tumors. The data set can be described thus: In vivo blocking assay of Cy5‐RWY by unlabeled peptides. The conditions noted are these: i.v. 6 nmol Cy5‐RWY together with 6 μmol unlabeled peptide; mice bearing Sw1990 tumors. Here is the method:
FIGURE 1 Increased and poorer prognosis of integrin α6 in PDAC and the optimization of a peptide targeting integrin α6. […] D, The binding affinities of seven Ala‐mutated peptides were analyzed by ELISA. E, The in vivo blocking assays were performed via intravenous injection of 6 nmol of Cy5‐RWY together with 6 μmol of the unlabeled RWY peptide, or its scrambled peptide or a set of its alanine‐scanning mutant peptides into mice bearing Sw1990 tumors. […] F and G, Sw1990 cells were incubated with Cy5‐RWY and Cy5‐S5 at 37°C for 30 min, and the integrin α6‐binding affinities of Cy5‐RWY and Cy5‐S5 were analyzed by flow cytometric analysis (F); the fluorescence intensity of the S5 group presented as relative (1.41 ± 0.03) fold over RWY, indicating a higher tumor cell‐binding ability of S5. H and I To further investigate the in vivo tumor‐binding ability of the S5 peptide, Cy5‐S5, Cy5‐RWY, and Cy5‐CG7C (negative control) were synthesized and used in NIRF.

The next data set has as its target T1, integrin α6 (Homo sapiens, UniProt P23229).
T1 sequence (P23229 24-1130): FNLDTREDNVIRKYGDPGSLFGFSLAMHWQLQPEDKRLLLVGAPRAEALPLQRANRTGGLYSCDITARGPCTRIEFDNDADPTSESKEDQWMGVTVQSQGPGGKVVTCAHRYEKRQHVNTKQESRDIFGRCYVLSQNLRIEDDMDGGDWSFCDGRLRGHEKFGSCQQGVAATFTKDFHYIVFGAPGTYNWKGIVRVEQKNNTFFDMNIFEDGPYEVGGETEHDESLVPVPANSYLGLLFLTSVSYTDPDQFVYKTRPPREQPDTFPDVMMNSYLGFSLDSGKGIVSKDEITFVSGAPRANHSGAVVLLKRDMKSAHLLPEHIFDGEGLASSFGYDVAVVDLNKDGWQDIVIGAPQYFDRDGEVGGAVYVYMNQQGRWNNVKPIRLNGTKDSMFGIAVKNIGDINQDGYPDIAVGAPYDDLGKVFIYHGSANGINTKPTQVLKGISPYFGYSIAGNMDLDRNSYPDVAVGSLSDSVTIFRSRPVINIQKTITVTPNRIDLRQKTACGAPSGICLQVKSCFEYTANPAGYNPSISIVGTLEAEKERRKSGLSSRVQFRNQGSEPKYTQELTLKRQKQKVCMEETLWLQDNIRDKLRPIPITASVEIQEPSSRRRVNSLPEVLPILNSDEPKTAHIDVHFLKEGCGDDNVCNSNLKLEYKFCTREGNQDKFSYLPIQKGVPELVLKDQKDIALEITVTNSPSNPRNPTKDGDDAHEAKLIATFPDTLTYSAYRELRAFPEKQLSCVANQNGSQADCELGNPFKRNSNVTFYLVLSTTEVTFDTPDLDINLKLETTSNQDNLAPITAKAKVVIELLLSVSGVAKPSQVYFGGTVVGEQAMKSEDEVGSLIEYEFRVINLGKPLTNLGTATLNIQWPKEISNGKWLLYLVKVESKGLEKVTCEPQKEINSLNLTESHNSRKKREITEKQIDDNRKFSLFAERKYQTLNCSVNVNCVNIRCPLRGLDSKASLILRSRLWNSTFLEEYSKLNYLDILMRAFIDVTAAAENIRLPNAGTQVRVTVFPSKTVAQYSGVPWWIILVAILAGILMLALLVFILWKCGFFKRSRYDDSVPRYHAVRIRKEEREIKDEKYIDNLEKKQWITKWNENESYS
Put plainly: Binding of Ala-mutated peptides by ELISA (alanine scanning of RWY). The note with it: relative to RWY peptide; Figure 1D,E (ELISA and in vivo blocking). The text has this: We selected integrin α6 as the target of PDAC as it was overexpressed in pancreatic cancer cells ^4 , ^5 and cancerous tissue of patients with PDAC ^4 , ^6 , ^7 with an overexpression rate up to 92%. ^4 Increased integrin α6 levels were associated with stronger PDAC cell invasiveness ^5 and poorer prognosis for patients. ^6 , ^7 Furthermore, the integrin α6β4 dimer was overexpressed in PanIN even at a stage as early as PanIN 1A. ^4 Here, we confirmed that integrin α6 was overexpressed in human PDAC (Figure 1A,B) and increased integrin α6 had poorer prognosis for PDAC patients (Figure 1C). Recently, a peptide CRWYDENAC (dubbed RWY) targeting integrin α6 has been identified ^8 and employed for nanotherapeutics of nasopharyngeal carcinoma ^8 and for PET imaging of hepatocellular carcinoma by our team. ^9 Here, we used the Ala scanning mutagenesis to modify the RWY peptide. R, W, and Y were the three key amino acids within the RWY peptide, since their replacement by an alanine reduced the cellular binding ability of this peptide, both in vitro and in vivo. […]
FIGURE 1 Increased and poorer prognosis of integrin α6 in PDAC and the optimization of a peptide targeting integrin α6. […] D, The binding affinities of seven Ala‐mutated peptides were analyzed by ELISA. […]
(In general: In an ELISA, binding on a coated surface is turned into a signal by an enzyme label.)

Take `C[C@@H]1NC(=O)[C@H](CC(N)=O)NC(=O)[C@H](C)NC(=O)[C@H](CC(=O)O)NC(=O)[C@H](Cc2ccc(O)cc2)NC(=O)[C@H](Cc2c[nH]c3ccccc23)NC(=O)[C@H](CCCNC(=N)N)NC(=O)[C@@H](NC(=O)CCOCCOCCOCCOCCNC(=O)CN2CCN(CC(=O)O)CCN(CC(=O)O)CC2)CSSC[C@@H](C(=O)O)NC1=O` [^18F‐S5] ({NOTA-PEG4}-CRWYDANAC-OH; disulfide 1-9 (inferred); N-terminus and C-terminus assumed): in data set [1], the uptake in tumor was 4.34 ± 1.16 %ID/g. Moreover, the “uptake in PanIN tissue” value with PanIN is given as 2.99 ± 0.52 %ID/g. Also, the tissue uptake at 2 h is 2.43 ± 0.35 %ID/g in the data set “in vivo” (KC (LSL-Kras^G12D/+; Pdx1-Cre), uptake in heart); 1.31 ± 0.22 %ID/g in the data set “in vivo” (KC (LSL-Kras^G12D/+; Pdx1-Cre), uptake in liver); 0.89 ± 0.13 %ID/g in the data set “in vivo” (KC (LSL-Kras^G12D/+; Pdx1-Cre), uptake in muscle); 2.38 ± 0.45 %ID/g in the data set “in vivo” (KPC (LSL-Kras^G12D/+; Pdx1-Cre; Trp53^fl/fl), uptake in heart); 1.24 ± 0.33 %ID/g in “in vivo” (KPC (LSL-Kras^G12D/+; Pdx1-Cre; Trp53^fl/fl), uptake in liver); 1 ± 0.17 %ID/g in the data set “in vivo” (KPC (LSL-Kras^G12D/+; Pdx1-Cre; Trp53^fl/fl), uptake in muscle). Also, in data set [2], the “uptake in tumor tissues compared with other tissues and organs” value was “the highest among all collected tissues and organs except for the kidney”.
As to “CRWYDANAC [S5, peptide …, alanine substitution of E in RWY]”, the “blocking effect on Cy5‐RWY” value in the data set with Sw1990 tumors was “highest blocking effect”. At integrin α6, the “enhanced tumor binding ability” value is given as “approximately 1.5 fold”.
